Results reported in paper PMC6713497.

Assays:
[1] = molecular target: AxqNOR Val495Ala-BRIL (Alcaligenes xylosoxidans); experiment: cryo-EM structure; single-particle cryo-EM of detergent-solubilised qNOR-BRIL (50 mM tris, 150 mM NaCl, 0.05% DTM; wild type pH 7.0 at 3 mg/ml, Val495Ala pH 7.5 at 5 mg/ml), C2 symmetry imposed
[2] = molecular target: qNOR from Neisseria meningitidis (NmqNOR), wild type (Neisseria meningitidis); experiment: cryo-EM structure; cryo-EM dataset of wild-type NmqNOR, 9 Å reconstruction (fig. S1); conditions not given

Substance | stoichiometry N [1] | stoichiometry N [2]
AxqNOR Val495Ala-BRIL (enzyme) | 2 | –
qNOR from Neisseria meningitidis (NmqNOR), wild type (enzyme) | – | 2
